A word on the EC50: it is the concentration at which the effect is half-maximal.

T1: Human IL-2Rβ/γ (intermediate affinity IL-2 receptor) (human, UniProt P14784 27-551; P31785 23-369)
T1 construct: whole, on cells; also called IL-2Rβ/γc; IL-2Rβ (CD122) and γ (CD132)
T1 sequence (looked up) 1: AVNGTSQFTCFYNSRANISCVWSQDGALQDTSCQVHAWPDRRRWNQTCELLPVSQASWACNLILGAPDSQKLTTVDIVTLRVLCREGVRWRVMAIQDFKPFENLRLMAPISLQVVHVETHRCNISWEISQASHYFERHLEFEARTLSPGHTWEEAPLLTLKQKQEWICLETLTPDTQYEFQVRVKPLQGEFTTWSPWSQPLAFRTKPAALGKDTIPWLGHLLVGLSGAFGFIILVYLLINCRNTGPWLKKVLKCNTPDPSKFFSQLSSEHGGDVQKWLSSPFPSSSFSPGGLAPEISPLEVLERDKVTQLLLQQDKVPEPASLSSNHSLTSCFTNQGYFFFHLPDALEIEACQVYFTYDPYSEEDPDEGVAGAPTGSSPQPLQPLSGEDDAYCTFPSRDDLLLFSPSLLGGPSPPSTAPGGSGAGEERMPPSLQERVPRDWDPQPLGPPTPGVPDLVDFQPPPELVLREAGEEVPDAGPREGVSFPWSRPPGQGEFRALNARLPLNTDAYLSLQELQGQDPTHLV
T1 sequence (looked up) 2: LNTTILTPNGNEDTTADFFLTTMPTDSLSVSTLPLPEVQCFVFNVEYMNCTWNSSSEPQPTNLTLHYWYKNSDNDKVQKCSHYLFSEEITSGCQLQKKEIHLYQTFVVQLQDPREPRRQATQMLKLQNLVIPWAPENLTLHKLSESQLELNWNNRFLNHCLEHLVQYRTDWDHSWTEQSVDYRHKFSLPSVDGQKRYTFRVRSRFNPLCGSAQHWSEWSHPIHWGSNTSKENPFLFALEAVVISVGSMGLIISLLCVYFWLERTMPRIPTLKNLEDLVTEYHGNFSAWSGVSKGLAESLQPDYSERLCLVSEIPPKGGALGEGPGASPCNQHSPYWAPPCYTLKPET

T2: Human IL-2Rα/β/γ complex (high affinity IL-2 receptor) (human, UniProt P01589 22-272; P14784 27-551; P31785 23-369)
T2 construct: whole, on cells
T2 sequence (looked up) 1: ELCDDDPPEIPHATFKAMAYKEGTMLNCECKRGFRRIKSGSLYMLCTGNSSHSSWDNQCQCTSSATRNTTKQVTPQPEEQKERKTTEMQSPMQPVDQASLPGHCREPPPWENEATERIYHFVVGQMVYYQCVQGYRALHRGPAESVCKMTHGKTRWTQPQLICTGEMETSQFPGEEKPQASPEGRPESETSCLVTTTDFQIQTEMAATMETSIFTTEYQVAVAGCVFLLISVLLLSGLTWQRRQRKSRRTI
T2 sequence (looked up) 2: T1 sequence (looked up) 1
T2 sequence (looked up) 3: T1 sequence (looked up) 2

B1: W3XX115-T2U0.E44-28.uIgG4V1 (Fc fusion)
chain: APTSSSTKKTQLQLEHLLLDLQMILNGINNYKNPKLTRMLTFKFYMPKKATELKHLQCLEEELKPLEEVLNLAQSKNFHLRPRDLISNINVIVLELKGSETTFMCEYADETATIVEFLNRWITFCQSIAESKYGPPCPPCPAPEFLGGPSVFLFPPKPKDTLMISRTPEVTCVVVDVSQEDPEVQFNWYVDGVEVHNAKTKPREEQFNSTYRVVSVLTVLHQDWLNGKEYKCKVSNKGLPSSIEKTISKAKGQPREPQVYTLPPCQEEMTKNQVSLWCLVKGFYPSDIAVEWESNGQPENNYKTTPPVLDSDGSFFLYSRLTVDKSRWQEGNVFSCSVMHEALHNHYTQKSLSLSLG
heavy: EIQLQQSGPELVKPGASVKVSCKASGYSFTDYNMYWVKQSHGESLEWIGYIDPYNGGTRYNQKFKGKATLTVDKSSSTAFMHLNSLTSEDSAVYYCARNGHWDGAWFAYWGQGTLVTVSAASTKGPSVFPLAPCSRSTSESTAALGCLVKDYFPEPVTVSWNSGALTSGVHTFPAVLQSSGLYSLSSVVTVPSSSLGTKTYTCNVDHKPSNTKVDKRVESKYGPPCPPCPAPEFLGGPSVFLFPPKPKDTLMISRTPEVTCVVVDVSQEDPEVQFNWYVDGVEVHNAKTKPREEQFNSTYRVVSVLTVLHQDWLNGKEYKCKVSNKGLPSSIEKTISKAKGQPREPQVCTLPPSQEEMTKNQVSLSCAVKGFYPSDIAVEWESNGQPENNYKTTPPVLDSDGSFFLVSRLTVDKSRWQEGNVFSCSVMHEALHNHYTQKSLSLSLG
light: DIQMNQSPSSLSASLGDTITITCHASQNINVWLSWYQQKPGNIPKLLIYKASNLHTGVPSRFSGSRSGTGFTLTISSLQPEDIATYYCHQGQSYPFTFGSGTKLEIKRTVAAPSVFIFPPSDEQLKSGTASVVCLLNNFYPREAKVQWKVDNALQSGNSQESVTEQDSKDSTYSLSSTLTLSKADYEKHKVYACEVTHQGLSSPVTKSFNRGEC
notes: IL-2 del STLT and I129A; E44 format, IgG4
B2: W3XX115-T2U0.E44-25.uIgG4V1 (Fc fusion)
chain: APTSSSTKKTQLQLEHLLLDLQMILNGINNYKNPKLTRMLTFKFYMPKKATELKHLQCLEEELKPLEEVLNLAQSKNFHLRPRDLISNINVIVLELKGSETTFMCEYADETATIVEFLNRWITFCQSIIKYGPPCPPCPAPEFLGGPSVFLFPPKPKDTLMISRTPEVTCVVVDVSQEDPEVQFNWYVDGVEVHNAKTKPREEQFNSTYRVVSVLTVLHQDWLNGKEYKCKVSNKGLPSSIEKTISKAKGQPREPQVYTLPPCQEEMTKNQVSLWCLVKGFYPSDIAVEWESNGQPENNYKTTPPVLDSDGSFFLYSRLTVDKSRWQEGNVFSCSVMHEALHNHYTQKSLSLSLG
heavy: B1 heavy
light: B1 light
notes: IL-2 del STLT and 2 aa deleted in IgG4 N-terminal hinge; E44 format
B3: W3XX115-T2U0.E44-24.uIgG4V1 (Fc fusion)
chain: APTSSSTKKTQLQLEHLLLDLQMILNGINNYKNPKLTRMLTFKFYMPKKATELKHLQCLEEELKPLEEVLNLAQSKNFHLRPRDLISNINVIVLELKGSETTFMCEYADETATIVEFLNRWITFCQSIISKYGPPCPPCPAPEFLGGPSVFLFPPKPKDTLMISRTPEVTCVVVDVSQEDPEVQFNWYVDGVEVHNAKTKPREEQFNSTYRVVSVLTVLHQDWLNGKEYKCKVSNKGLPSSIEKTISKAKGQPREPQVYTLPPCQEEMTKNQVSLWCLVKGFYPSDIAVEWESNGQPENNYKTTPPVLDSDGSFFLYSRLTVDKSRWQEGNVFSCSVMHEALHNHYTQKSLSLSLG
heavy: B1 heavy
light: B1 light
notes: IL-2 del STLT and 1 aa deleted in IgG4 N-terminal hinge; E44 format
B4: W3XX115-T2U0.E44-29.uIgG4V1 (Fc fusion)
chain: B1 chain with A129S
heavy: B1 heavy
light: B1 light
notes: IL-2 del STLT and I129S; E44 format, IgG4

Numbering of substitutions follows the chain as printed. Names may count otherwise.

The first test addresses T1, Human IL-2Rβ/γ (intermediate affinity …). In words: FACS, HH cells. As for the experimental part:
(§1) Human cutaneous T cell lymphoma HH cells, malignant non-Hodgkin's lymphoma NK92 cells and cutaneous T cell lymphoma MJ20 cells were used for binding assay. They both constitutively express IL-2Rβ (CD122) and […] (CD132), and NK92 and MJ20 also expresses IL-2Rα (CD25). HH, NK92 and MJ20 cells were cultured following ATCC guidance, then transferred to a 96-plate for binding analysis. Cells were incubated with IL-2/Fc fusion proteins at the indicated concentrations for 30 min at 4° C. to avoid internalization. Binding was detected by 2nd antibody of PE-anti-human Fc at 4° C. for another 30 min. The median fluorescence intensity (MFI) on HH and NK92 cells was measured using FACS.
In general terms: Flow cytometry measures light scatter and fluorescence of single cells or particles in a stream.
For B1, the 50% effective concentration (EC50) worked out at 839 nM.
Still for that read-out and setting: then B2, with 1280 nM; and B3, with 438 nM.
Still for that read-out and setting: then B4, with 1550 nM.

The target in another test is T2, Human IL-2Rα/β/γ complex (high affinity …). In words: FACS, MJ20 cells. The method, then: as §1
(§2) Affinity of IL-2 variants to IL-2Rα/β/γ supported the same results (FIG. 8 and Table 7). […] And T2U0.E44-26, T2U0.E44-27, T2U0.E44-29 and T2U0.E44-30 induced hundreds to thousands affinity reduction in Treg compared to T2U0.E44-1. Binding curves in MJ20 cells (IL-2Rα/β/γ) also achieved similar trend (FIG. 8b). As a result, the method of C-terminal truncation and substitution of 129 was available to achieve IL-2Rβγ attenuated IL-2 variants.
Turning to B1, the 50% effective concentration (EC50) turned out to be 103 nM.
The same measure, in the same setting: then B2, with 63.2 nM; and B3, with 18.4 nM; and B4, with 233 nM.

The next test has as its target T1, Human IL-2Rβ/γ (intermediate affinity …). In words: cell-based or functional assay.
In the case of B1, the “Potency in human CD8+ T EC50” value was determined as 446 nM and the “Potency reduction (CD8+ T)” value was determined as 22.3 fold.
In the case of B2, the “Potency in human CD8+ T EC50” value was 84.9 nM and the “Potency reduction (CD8+ T)” value was 4.2 fold.
Turning to B3, the “Potency in human CD8+ T EC50” value is 125 nM and the “Potency reduction (CD8+ T)” value stood at 6.3 fold.
In the same order, the values of B4 are 406 nM and 20.3 fold.

For a further test, the target named is T2, Human IL-2Rα/β/γ complex (high affinity …). In words: cell-based or functional assay.
For B1, the “Potency in human Treg EC50” value turned out to be 0.095 nM and the “Potency reduction (Treg)” value is 37.6 fold.
On to B2, for which the “Potency in human Treg EC50” value came out at 0.022 nM and the “Potency reduction (Treg)” value turned out to be 8.8 fold.
B3: the “Potency in human Treg EC50” value was determined as 0.003 nM and the “Potency reduction (Treg)” value is 1.2 fold.
Take B4: the “Potency in human Treg EC50” value was found to be 3.76 nM and the “Potency reduction (Treg)” value was determined as 1490 fold.

For another test, the target named is T1, Human IL-2Rβ/γ (intermediate affinity …). In words: FACS, HH cells; EC50 fold vs T2U0.E44-1. The method, then: as §1
B1 had an Affinity reduction of 15.6 fold.
Still for that read-out and setting: then B2, with 23.8 fold; and B3, with 8.1 fold; and B4, with 28.8 fold.

The target of a further test is T2, Human IL-2Rα/β/γ complex (high affinity …). In words: FACS, MJ20 cells; EC50 fold vs T2U0.E44-1. As for the experimental part: as §1, §2
Consider B1, for which the Affinity reduction stood at 7.4 fold.
Regarding B2, the Affinity reduction turned out to be 4.5 fold.
Consider B3, for which the Affinity reduction came to 1.3 fold.
B4 gave an Affinity reduction of 17 fold.

For the origin of these results see patent publication US20250000946A1 (WUXI BIOLOGICS IRELAND, published 2025).
